Target: T1, osteoprotegerin (OPG) (UniProt O00300 22-401)
T1 construct: osteoprotegerin (OPG)
T1 sequence (looked up): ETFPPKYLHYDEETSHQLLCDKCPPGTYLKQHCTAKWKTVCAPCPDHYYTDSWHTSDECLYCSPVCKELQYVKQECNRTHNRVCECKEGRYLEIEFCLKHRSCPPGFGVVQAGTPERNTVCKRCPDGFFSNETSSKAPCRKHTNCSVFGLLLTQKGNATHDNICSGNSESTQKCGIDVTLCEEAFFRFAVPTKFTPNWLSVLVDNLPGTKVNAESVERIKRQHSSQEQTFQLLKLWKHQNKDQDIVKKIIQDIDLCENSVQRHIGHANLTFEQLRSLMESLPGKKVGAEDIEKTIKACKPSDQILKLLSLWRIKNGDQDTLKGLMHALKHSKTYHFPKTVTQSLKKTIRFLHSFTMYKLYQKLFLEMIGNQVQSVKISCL
Experiment: non-cell based binding assay; binding to human RANKL, as previously described (ref. 14); format and conditions not told

B1: human receptor activator of nuclear factor kappa B ligand (RANKL) (ligand, UniProt O14788 140-317, looked up)
chain: IRAEKAMVDGSWLDLAKRSKLEAQPFAHLTINATDIPSGSHKVSLSSWYHDRGWAKISNMTFSNGKLIVNQDGFYYLYANICFRHHETSGDLATEYLQLMVYVTKTSIKIPSSHTLMKGGSTKYWSGNSEFHFYSINVGGFFKLRSGEEISIEVSNPSLLDPDQDATYFGAFKVRDID
notes: also called human RANKL; huRANKL; source: recombinant protein huRANKL, provided by Amgen Inc
B1 showed a Kd of about 0.63 nM.
